Laboratory results taken from US20180044434A1.

Legend:
[1] = target: T1, Ala mutant of TA0096, SEQ ID NO: 32; assay: ELISA, coated peptide
T1 sequence (peptide): EENMDAQWMQDEMEIGY

[2] = target: T2, Ala mutant having 3-amino acid substitution, SEQ ID NO: 46; assay: ELISA, coated peptide
T2 sequence (peptide): EENMDDAAAQDEMEIGY

OD 490/630 nm [1]: 0.012 | OD 490/630 nm [2]: 0.052
Substance: anti-dinitrophenyl (DNP) antibody (negative control)
